Consider 4 molecules from PMC6802964 (2019).

Experiment [1] addresses T1, CyPet–Myo1^IQ12S742D–YPet FRET reporter protein (S742D phosphomimetic) (S. pombe).
T1 chain: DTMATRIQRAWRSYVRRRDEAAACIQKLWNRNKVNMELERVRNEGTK
In words: FRET; first site (Kd1).

The target of experiment [2] is T2, CyPet–Myo1^IQ12–YPet FRET reporter protein (S. pombe).
T2 chain: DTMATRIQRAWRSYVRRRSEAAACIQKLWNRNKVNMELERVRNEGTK
Nature of the experiment: FRET; first site (Kd1).

Experiment [3] addresses T1, CyPet–Myo1^IQ12S742D–YPet FRET reporter …. In words: FRET; second site (Kd2).
The target in experiment [4] is T3, CyPet–Myo1^IQ1–YPet FRET reporter protein (S. pombe).
T3 chain: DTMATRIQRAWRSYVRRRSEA
In words: FRET.

The target in the next experiment is T4, Myo1 IQ12 (Schizosaccharomyces pombe, UniProt Q9Y7Z8).
T4 chain: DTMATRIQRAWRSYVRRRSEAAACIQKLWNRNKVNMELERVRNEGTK
In words: FRET.

Experiment [5] has as its target T1, CyPet–Myo1^IQ12S742D–YPet FRET reporter …. Nature of the experiment: FRET.

B1: Cam1 (wild type, amino-terminally acetylated fission yeast calmodulin) (natural protein)
chain: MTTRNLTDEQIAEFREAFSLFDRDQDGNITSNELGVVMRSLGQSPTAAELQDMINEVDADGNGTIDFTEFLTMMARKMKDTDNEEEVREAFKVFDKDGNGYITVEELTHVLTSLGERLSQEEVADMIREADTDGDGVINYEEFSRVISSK
modifications: amino-terminally (Nt) acetylated
Take B1: the Kd turned out to be 90 nM in experiment [1], 40 nM in experiment [2], 540 nM in experiment [3] and 60 nM in experiment [4].

B2: Cam1 (protein)
chain: not shown
In turn, B2 had a Kd with Myo1 IQ12 of 680 nM.

B3: Cam2 (protein)
chain: MPASKEQTDEMKEAFVLYDIDKDGLIPTSHVGSVLRSLGINVTDAELAKLSNELGDAIDEKKFMSFVSNKLRETESEEEYIKAFRVFDKDNSGYIETAKFADYMKTLGEKLSDNEVQLMVQEADPTNSGSFDYYDFVQRIMAK
With B3, in the experiment with Myo1 IQ12, binding was put at a Kd of 1100 nM.

B4: Cam2 (calcium-insensitive calmodulin-like protein) (natural protein)
chain: MPASKEQTDEMKEAFVLYDIDKDGLIPTSHVGSVLRSLGINVTDAELAKLSNELGDAIDEKKFMSFVSNKLRETESEEEYIKAFRVFDKDNSGYIETAKFADYMKTLGEKLSDNEVQLMVQEADPTNSGSFDYYDFVQRIMAK
As for B4, the Kd came out at 20 nM in experiment [2] and 250 nM in experiment [5].

The term Kd denotes the concentration at which binding is half-saturated. A high value points to a looser complex.
